Assay results published in article PMC10732425.

How the values were obtained:
[1] = target: RhlR:mBTL;PqsE (Pseudomonas aeruginosa (PA14?);Pseudomonas aeruginosa (PA14?)) (UniProt P54292+A0A0H2Z6F6); assay: EMSA; conditions: […] (17 of 20 uL): 200 mM KCl, 50 mM Tris-HCl pH 7.5, 250 ug/mL BSA, 50 mM NaCl, 5 nM EDTA, 5 uM MgCl2, 5 uM DTT ([…], RT 15 min
[2] = target: T1, RhlR:mBTL (Pseudomonas aeruginosa (PA14?)) (UniProt P54292); assay: EMSA; conditions: […] (17 of 20 uL): 200 mM KCl, 50 mM Tris-HCl pH 7.5, 250 ug/mL BSA, 50 mM NaCl, 5 nM EDTA, 5 uM MgCl2, 5 uM DTT ([…], RT 15 min
T1 sequence: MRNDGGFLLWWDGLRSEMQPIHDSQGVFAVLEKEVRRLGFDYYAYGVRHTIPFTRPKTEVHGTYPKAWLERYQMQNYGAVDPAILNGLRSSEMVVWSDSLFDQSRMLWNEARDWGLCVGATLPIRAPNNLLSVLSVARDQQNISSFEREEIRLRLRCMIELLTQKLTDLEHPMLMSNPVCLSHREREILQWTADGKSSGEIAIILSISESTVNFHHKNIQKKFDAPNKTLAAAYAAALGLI

Sequence | binding [1] | binding [2]
GGGGCTTGTGTGGGTCTTGCAGATCGGCCTGCGCAAACGATTGGCGTCCGTGTTCACGCGTAGCCGATGAACACTTTTTAGCCAATTCGAAAGCTAACGGTAACTGCCAGATTTCACAGGACGGGCGGTCGCCTGCGCATAAGCCCCTGCCCGCCCGCGATAAGGCGTGCCAGAGCGGCCGGCGGGGAACAGCGAGGGGTTGGCGGAAAAGGCATGAAAA (double strand) [rhlA promoter fragment] | binds | binds
TATGGCGTGTCGGGAGAGATCCGCAGTCCTTGGCGGCAGGCGATGCGCAGGCAGGAAGGACGCATCGTTCAGCCAATCTACGCCGTCGACCGGGCGCGACCACTGCTAGAGTTCGCAGGAGGGCTACAGGGGTGTCCTGGCACTGGCGATGCATGGCCCGGTGCCGGTCTATGGCAGCCGCCTGCCGGCCCACTCGTTCGATTGTTACGCTGTCTGTAAT (double strand) [lecB promoter fragment] | binds | 
TGGATGGTCATGTCTGCCCGCGAGAGGGGCTGGATATCGTGTTGACGTTCAAGAAGGTGCATTGCCCTTTCATCCGTGAGAGAGAGTCGGGAGCCGGCGACACTAGGAGTCGGGCCGGGCGCGGACATTGATCCATGACAGGTGGGTATCTTCCCCTGCCAATTCTGGTAGGTGGGGTGCAGGTGTTCGCGCGGAAAAGTCGAACCCGCGCCTACCCCAG (double strand) [hcnA promoter fragment] | binds | 
